From patent US20140357549A1 (UNIVERSITY OF PITTSBURGH OF THE COMMONWEALTH SYSTEM OF …, published 2014) come the findings set out here.

The test addresses T1, Nox1 (UniProt Q9Y5S8 1-564, limits assumed).
T1 sequence (looked up): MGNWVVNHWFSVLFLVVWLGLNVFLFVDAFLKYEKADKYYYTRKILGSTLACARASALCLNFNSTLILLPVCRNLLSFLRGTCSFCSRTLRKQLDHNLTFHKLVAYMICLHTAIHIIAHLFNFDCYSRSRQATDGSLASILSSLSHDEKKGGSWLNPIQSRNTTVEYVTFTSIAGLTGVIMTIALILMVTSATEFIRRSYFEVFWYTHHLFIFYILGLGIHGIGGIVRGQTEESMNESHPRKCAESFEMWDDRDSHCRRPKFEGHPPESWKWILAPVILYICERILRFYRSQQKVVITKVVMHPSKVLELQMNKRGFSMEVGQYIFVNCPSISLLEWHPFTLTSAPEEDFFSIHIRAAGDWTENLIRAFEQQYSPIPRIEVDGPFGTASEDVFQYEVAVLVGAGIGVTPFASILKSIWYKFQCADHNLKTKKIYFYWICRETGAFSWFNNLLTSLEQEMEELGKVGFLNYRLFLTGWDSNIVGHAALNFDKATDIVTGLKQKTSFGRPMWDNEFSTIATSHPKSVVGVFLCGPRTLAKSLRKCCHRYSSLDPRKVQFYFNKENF
The experiment in a line: cell-based or functional assay.

B1: NoxA1ds (peptide)
peptide: H-EPVDALGKAKV-NH2
B1: the “inhibition of O2^- production by Nox1-transfected COS22 cells (SOD-inhibitable cytochrome c reduction), IC50” value amounted to 19 nM.
